Data: article PMC2822398

Target: variola virus topoisomerase IB (vTopIB) (variola virus (smallpox), UniProt P32989 1-314)
Test: X-ray crystallography

Sequence of variola virus topoisomerase IB (vTopIB) (P32989 whole entry): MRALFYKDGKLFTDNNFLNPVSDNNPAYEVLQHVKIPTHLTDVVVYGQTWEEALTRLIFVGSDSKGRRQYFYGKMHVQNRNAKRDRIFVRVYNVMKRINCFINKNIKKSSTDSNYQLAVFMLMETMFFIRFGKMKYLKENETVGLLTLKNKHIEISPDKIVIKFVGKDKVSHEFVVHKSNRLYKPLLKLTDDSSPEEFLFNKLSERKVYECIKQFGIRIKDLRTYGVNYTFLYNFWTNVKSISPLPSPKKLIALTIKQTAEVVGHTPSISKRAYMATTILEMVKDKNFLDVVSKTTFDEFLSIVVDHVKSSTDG

B1: nicked vTopIB-binding duplex (three oligonucleotides) (dsDNA)
DNA 1: GTGTCGCCCTT
DNA 2: ATTCC
DNA 3: CGGAATAAGGGCGACA
modifications: nick at the scissile phosphate (phosphodiester missing), filled by vanadate in the crystal
binding result: binds
